# Like-named read-outs stand apart in the source and are kept apart here.
# Tests used:
# [1] = target: T1, human CD47 expressed on cells (CD47 expressing CHO cells, Jurkat, HL60, DLD1, Raji) (human, UniProt Q08722 19-292); test: flow cytometry on human platelets, donor 1, MFI
# T1 construct: also called CHO-CD47; IAP
# [2] = target: T1, human CD47 expressed on cells (CD47 …); test: flow cytometry on human platelets, donor 2, MFI
# [3] = target: T1, human CD47 expressed on cells (CD47 …); test: flow cytometry on human red blood cells, donor 1, MFI
# [4] = target: T1, human CD47 expressed on cells (CD47 …); test: flow cytometry on human red blood cells, donor 2, MFI
# [5] = target: T1, human CD47 expressed on cells (CD47 …); test: flow cytometry blocking assay on Raji cells, SIRPα is the blocked ligand, MFI
# [6] = target: T1, human CD47 expressed on cells (CD47 …); test: IC50 as grade, SIRPα blocking on Raji cells (second part of the table); legend ++: >1 nM and <20 nM
# [7] = target: T1, human CD47 expressed on cells (CD47 …); test: flow cytometry on human platelets, MFI
# [8] = target: T1, human CD47 expressed on cells (CD47 …); test: flow cytometry on human red blood cells, MFI
# CD47 on monkey RBC = target: T2, CD47 on monkey RBC (Macaca fascicularis, UniProt A0A2K5X523); test: flow cytometry on cynomolgus monkey red blood cells expressing CD47, MFI
# T2 construct: native, on red blood cells; also called cynomolgus monkey red blood cells expressing CD47
# [9] = target: T1, human CD47 expressed on cells (CD47 …); test: flow cytometry blocking assay on Raji cells, SIRPα is the blocked ligand, MFI; remark: listed apart in the source
# [10] = target: T1, human CD47 expressed on cells (CD47 …); test: flow cytometry on DLD1 cells, IgG, frequency
# [11] = target: T1, human CD47 expressed on cells (CD47 …); test: IC50 (nM) MFI as grade, blocking biotinylated SIRPa-Fc binding to DLD1 cells; legend +: >20 nM
# [12] = target: T1, human CD47 expressed on cells (CD47 …); test: IC50 (nM) Frequency as grade, blocking biotinylated SIRPa-Fc binding to DLD1 cells; legend +++: <1 nM
# [13] = target: T1, human CD47 expressed on cells (CD47 …); test: EC50 (nM) as grade, flow cytometry, Fab on HL60 cells; legend +++: <1 nM
# [14] = target: T1, human CD47 expressed on cells (CD47 …); test: EC50 (nM) as grade, flow cytometry, Fab on DLD1 cells; legend ++: >5 nM and <60 nM
# [15] = target: T3, biotin labelled polyhistidine tagged CD47 protein (Novoprotein, Cat#321) (human, UniProt Q08722 19-139, biotin labelled (site not stated)); test: IC50 (nM) as grade, Fab blocking biotinylated CD47 binding to SIRPα-CHO cells; legend +: >65 nM
# T3 construct: Bought protein; also called biotinylated CD47; biotinylated human CD47 protein; not shown: polyhistidine tag
# [16] = target: T1, human CD47 expressed on cells (CD47 …); test: EC50 (nM) as grade, flow cytometry, Fab on DLD1 cells; legend +++: <5 nM
# [17] = target: T1, human CD47 expressed on cells (CD47 …); test: EC50 (nM) as grade, flow cytometry, Fab on DLD1 cells; legend +: >60 nM
# [18] = target: T3, biotin labelled polyhistidine tagged …; test: IC50 (nM) as grade, Fab blocking biotinylated CD47 binding to SIRPα-CHO cells; legend ++: >10 nM and <65 nM
# His-tagged CD47 [19] = target: T4, His-tagged CD47 (Homo sapiens (Human), UniProt Q08722 19-139, limits assumed); test: IC50 (nM) MFI as grade, blocking His-tagged CD47 binding to SIRPα-CHO cells; legend +++: <2 nM
# T4 construct: not shown: His tag
# His-tagged CD47 [20] = target: T4, His-tagged CD47; test: IC50 (nM) Frequency as grade, blocking His-tagged CD47 binding to SIRPα-CHO cells; legend +: >2.7 nM
# His-tagged CD47 [21] = target: T4, His-tagged CD47; test: flow cytometry blocking assay: His-tagged CD47 with Fab on SIRPα-expressing CHO cells (SIRPα is the blocked ligand), anti-His-APC, MFI
# His-tagged CD47 [22] = target: T4, His-tagged CD47; test: flow cytometry blocking assay: His-tagged CD47 with Fab on SIRPα-expressing CHO cells (SIRPα is the blocked ligand), anti-His-APC, frequency
binder,measurement,setting,value
"H-ABU 10 (antibody, V domains shown) VL: DIVMTQSPDSLAVSLGERATINCKSSQSLVSSSQKNYLAWYQQKPGQPPKLLIYWASVRDSGVPDRFSGSGSGTDFTLTISSLQAEDVAVYYCQQYYSYPLTFGQGTKVEIK VH: QVQLVQSGAEVKKPGASVKVSCKASGYTFTDNYINWVRQAPGQRLEWMGWIYLGSGNTKYNEKFKGRVTITRDTSASTAYMELSSLRSEDTAVYYCARREERGFAPWGQGTLVTVSS",EC50 (read off the curve),[1],~0.6 nM
same,EC50 (read off the curve),[2],~0.6 nM
same,EC50 (read off the curve),[3],~3 nM
same,EC50 (read off the curve),[4],~3 nM
same,IC50 (read off the curve),[5],~1 nM
same,IC50,[6],1 to 20 nM
"H-ABU 9 (antibody, V domains shown) VH: QVQLVQSGAEVKKPGASVKVSCKASGYTFTDLYINWVRQAPGQRLEWMGWIYLGSGNTKYNEKFKGRVTITRDTSASTAYMELSSLRSEDTAVYYCARREERGFAYWGQGTLVTVSS VL: not shown",EC50 (read off the curve),[1],~1 nM
same,IC50 (read off the curve),[5],~8 nM
same,IC50,[6],1 to 20 nM
H-ABU41-IgG4-P (antibody) light chain: DVQITQSPSSLSASVGDRVTITCRASKNIGKYLAWFQQKPGKTNKLLIYSGSTLQSGIPSRFSGSGSGTDFTLTISSLQPEDFATYYCQQHNEYPYTFGGGTKVEIK heavy chain: not shown,EC50 (read off the curve),[7],~2 nM
same,EC50 (read off the curve),[8],~4 nM
same,EC50 (read off the curve),CD47 on monkey RBC,~0.1 mg/L
same,IC50 (read off the curve),[9],~5 nM
H-ABU41-IgG4-PE (antibody) light chain: DVQITQSPSSLSASVGDRVTITCRASKNIGKYLAWFQQKPGKTNKLLIYSGSTLQSGIPSRFSGSGSGTDFTLTISSLQPEDFATYYCQQHNEYPYTFGGGTKVEIK heavy chain: not shown,EC50 (read off the curve),[7],~2 nM
same,EC50 (read off the curve),[8],~4 nM
same,EC50 (read off the curve),CD47 on monkey RBC,~0.1 mg/L
same,IC50 (read off the curve),[9],~3 nM
"ABU24 (IgG, chimeric version of the Fab) (antibody, V domains shown) VH: EVQLQQPGTELVKPGASVKLSCKASGYTFTSYWMHWVKQRPGQGLEWIGNVVPNNDGTNYNEKFRNKATLTVDKSSSTAYMQLSSLTSEDSAVYYCAVTYFAYWGQGTLVTVSA VL: DAVVTQESALTTSPGETVTLTCRSSTGAVSTSNYANWVQEKPDHLFTGLIGGTNNRAPGVPARFSGSLIGDKAALTITGAQTEDEAIYFCALWYSNHWVFGGGTKLTVL",EC50 (read off the curve),[10],~10 nM
same,IC50,[11],> 20 nM
same,IC50,[12],< 1 nM
"ABU24 (Fab) (Fab, V domains shown, Phage-derived Fab: murine VL and VH fused to human CL and CH1) VH: EVQLQQPGTELVKPGASVKLSCKASGYTFTSYWMHWVKQRPGQGLEWIGNVVPNNDGTNYNEKFRNKATLTVDKSSSTAYMQLSSLTSEDSAVYYCAVTYFAYWGQGTLVTVSA VL: DAVVTQESALTTSPGETVTLTCRSSTGAVSTSNYANWVQEKPDHLFTGLIGGTNNRAPGVPARFSGSLIGDKAALTITGAQTEDEAIYFCALWYSNHWVFGGGTKLTVL",EC50,[13],< 1 nM
same,EC50,[14],5 to 60 nM
same,IC50,[15],> 65 nM
"ABU16 (Fab) (Fab, V domains shown, Phage-derived Fab: murine VL and VH fused to human CL and CH1) VH: RVQLQQSGAELVRPGTSVKVSCKASAYAFTNYLIEWVKKRPGQGLEWIGVINPGSGGTNYNEKFKGKATLTADKSSSTAYMQLSSLTSEDSAVYFCARGDGYGSLFAYWGQGTLVTVSA VL: RHCFNQSPAIMSASPGEKVTMTCSASSSVSYMHWYQQKSGTSPKRWIYDTSNLASGVPVRFSGSGSGTSYSLTISRMEAEDAATYYCQQWSNYPFTFGSGTKLELK",EC50,[13],< 1 nM
same,EC50,[16],< 5 nM
same,IC50,[15],> 65 nM
"ABU11 (Fab) (Fab, V domains shown, Phage-derived Fab: murine VL and VH fused to human CL and CH1) VH: EVQLQQPGAELVRPGSSVKLSCKASGYSFTTYWMHWVKQRPGQGLEWIGNINPSSGDSHYNEKFKSKATLTVDKSSSTAYLQLNSLTSEDSAVYYCARDYYGAYWGHGTLVTVSA VL: DIQMTQSPASLSASVGETVTITCRASENVYSYLAWYQQKQGKSPQLLVYKANTLAEGVPSRFSGSGSGTQFSLKINSLQPEDFGTYYCQHHYGTPLTFGSGTKLEIK",EC50,[17],> 60 nM
same,EC50,[13],< 1 nM
same,IC50,[18],10 to 65 nM
"ABU8 (Fab) (Fab, V domains shown) VH: EVQLQQSGTELVKPGASVKLSCKASGYTFISYWMHWVKQRPGQGLEWIGNINPSSGNTNYNEKFKTKATLTVDKSSSTAYMQLSSLTSEDSAVYYCVRDYYGNYWGQGTTVTVSS VL: DIQMTQSPASLSASVGETVTITCRASENIYSYLAWYQQKQGKSPQLLVYNAKTLAEGVPSRFSGSGSGTQFSLKIKSLQPEDFGSYYCQHHYGTPLTFGGGTKLELK",EC50,[13],< 1 nM
same,EC50,[14],5 to 60 nM
same,IC50,[18],10 to 65 nM
"ABU40 (IgG, chimeric version of the Fab) (antibody, V domains shown) VH: EVQLQQPGTELVKPGASVKLSCKASGYSFTTYWMHWVKQRPGQGLEWIGNINPSSGDSHYNEKFKSKATLTVDKSSSTAYMQLNSLTSEDSAVYYCARDYYGAYWGHGTLVTVSA VL: DIQMTQSPASLSASVGETVTITCRASENIYSYLAWYQQKQGKSPQLLVYNAKTLAEGVPSRFSGSGSGTQFSLKINSLQPEDFGSYYCQHHYGTPLTFGAGTKLELK",EC50 (read off the curve),[10],~7 nM
same,IC50,[11],> 20 nM
same,IC50,[12],< 1 nM
"ABU40 (Fab) (Fab, V domains shown, Phage-derived Fab: murine VL and VH fused to human CL and CH1) VH: EVQLQQPGTELVKPGASVKLSCKASGYSFTTYWMHWVKQRPGQGLEWIGNINPSSGDSHYNEKFKSKATLTVDKSSSTAYMQLNSLTSEDSAVYYCARDYYGAYWGHGTLVTVSA VL: DIQMTQSPASLSASVGETVTITCRASENIYSYLAWYQQKQGKSPQLLVYNAKTLAEGVPSRFSGSGSGTQFSLKINSLQPEDFGSYYCQHHYGTPLTFGAGTKLELK",EC50,[13],< 1 nM
same,EC50,[14],5 to 60 nM
same,IC50,His-tagged CD47 [19],< 2 nM
same,IC50,His-tagged CD47 [20],> 2.7 nM
same,IC50,[18],10 to 65 nM
same,IC50 (read off the curve),His-tagged CD47 [21],~2 nM
same,IC50 (read off the curve),His-tagged CD47 [22],~3 nM
